# Measurements taken from patent US11041003B2, “Crystal structure of Staphylococcus aureus clumping factor A in complex with fibrinogen derived peptide and uses thereof” (THE TEXAS A&M UNIVERSITY SYSTEM, priority 2008, dated 2021).
# Where a SMILES comes first, the peptide text is derived from it.
# What was measured:
# αIIbβ3 = αIIbβ3 (Homo sapiens, UniProt P05106+P08514); experiment: Integrin (αIIbβ3) inhibition assay: inhibition of full length Fg binding to αIIbβ3; details: 10 nM full length Fg, inhibitory ELISA type assay
# Method: For αIIbβ3 inhibition assay. αIIbβ3Immulon 4HBX Microtiter 96-well plates (Thermo) were coated with αIIbβ3 ([…]) in TBS (25 mM Tris, 3 mM KCl, 140 mM NaCl, pH 7.4) over night at 4° C. The wells were washed with TBS containing 0.05% (w/v) Tween-20 (TBST). After blocking with 3% (w/v) BSA dissolved in TBS for 1 h at RT, 10 nM of full length Fg was applied in the presence of either WT γ^1-17, γ^1-17D16A or γ^1-17K12A peptides and plates were incubated at RT for another hour. The bound full length Fg was then detected by goat anti human Fg (1:1000 dilution, Sigma) antibody followed by horseradish peroxidase-conjugated rabbit anti-goat IgG antibody (1:1000 dilution, Cappel). After incubation with 0.4 mg/ml of substrate, o-phenylenediamine dihydrochloride (OPD, Sigma) dissolved in phosphate-citrate buffer, pH 5.0, bound antibodies were determined in an ELISA reader at 450 nm. The proteins, antibodies and peptides were diluted in TBST containing 1% (w/v) BSA, 2 mM MgCl2, 1 mM of CaCl2 and MnCl2.
# To examine this possibility, the ability of the synthesized Fg WT g^1-17 and mutated peptides (g^1-17D16A and g^1-17K12A) to inhibit full length Fg binding to αIIbβ3 was analyzed by inhibitory ELISA type assay (FIG. 6).
# GST-Fg γ^1-17 = molecular target: T1, GST-Fg γ^1-17 (Homo sapiens, UniProt P02679); experiment: ELISA-type binding of ClfA proteins to immobilized GST-Fg γ^1-17; details: GST Fg γ^1-17 coated in microtiter wells; read-out: apparent Kd for GST-Fg γ^1-17
# T1 construct: made in house; host or cells: Escherichia coli
Compound,inhibition of full length Fg binding to αIIbβ3 (αIIbβ3),inhibition of full length Fg binding to αIIbβ3 (αIIbβ3; listed as Fg-γ^1-17),Kd (GST-Fg γ^1-17) [nM],inhibition of full length Fg binding to αIIbβ3 (αIIbβ3; listed as γ^1-17K12A)
CC(C)C[C@H](NC(=O)[C@H](Cc1c[nH]cn1)NC(=O)[C@H](Cc1c[nH]cn1)NC(=O)[C@H](CCC(N)=O)NC(=O)[C@H](CCC(N)=O)NC(=O)CNC(=O)[C@H](CCC(=O)O)NC(=O)CN)C(=O)NCC(=O)NCC(=O)N[C@@H](C)C(=O)N[C@@H](CCCCN)C(=O)N[C@@H](CCC(N)=O)C(=O)N[C@@H](C)C(=O)NCC(=O)N[C@@H](CC(=O)O)C(=O)N[C@H](C(=O)O)C(C)C [g^1-17] (H-GEGQQHHLGGAKQAGDV-OH; N-terminus and C-terminus assumed),completely inhibited,inhibits,–,–
"ClfA229-545: recombinant His-tag ClfA construct, residues 229-545 of SEQ ID NO:35, composed only of the N2 N3 domains",–,–,222,–
g^1-17K12A: Fg γ 395-411 peptide with Lys12→Ala (GEGQQHHLGGAAQAGDV),weakly inhibited,–,–,very little inhibitory effect
